This passage reports activity results from US20220195407, “OPTIMIZATION OF ENGINEERED MEGANUCLEASES FOR RECOGNITION SEQUENCES” (Precision BioSciences, Inc., published 2022).

Holding throughout (assay): cell_activity; CHO iGFFP reporter
One data set addresses T1, LOX 3-4 m.201 (artificial (I-CreI derived)).
T1 chain: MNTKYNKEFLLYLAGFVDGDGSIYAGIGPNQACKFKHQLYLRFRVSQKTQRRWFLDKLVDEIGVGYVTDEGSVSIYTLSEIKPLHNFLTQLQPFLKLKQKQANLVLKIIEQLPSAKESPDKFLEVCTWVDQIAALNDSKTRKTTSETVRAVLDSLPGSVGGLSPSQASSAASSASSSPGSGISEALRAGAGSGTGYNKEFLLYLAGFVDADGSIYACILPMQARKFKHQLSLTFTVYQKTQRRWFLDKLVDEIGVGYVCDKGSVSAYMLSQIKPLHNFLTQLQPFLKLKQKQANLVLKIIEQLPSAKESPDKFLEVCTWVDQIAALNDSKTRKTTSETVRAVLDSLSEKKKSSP
An excerpt: (§1) A CHO cell reporter system (see WO/2012/167192, FIG. 3) was used to determine whether the engineered meganucleases generated in these studies could recognize and cleave the modified LOX 3-4 recognition sequences in Table 87. To perform the assay, a pair of CHO cell reporter lines were produced, which carried a non-functional Green Fluorescent Protein (GFP) gene expression cassette integrated into the genome of the cell. The GFP gene in each cell line was interrupted by a pair of recognition sequences such that intracellular cleavage of either recognition sequence by a meganuclease would stimulate a homologous recombination event resulting in a functional GFP gene. In both cell lines, one of the recognition sequences was derived from the LOX 3-4 recognition sequence (i.e., those sequences disclosed in Table 87), and the second recognition sequence was specifically recognized by a control meganuclease called “CHO 23/24.” CHO reporter cells comprising a recognition sequence derived from the LOX 3-4 recognition sequence and the CHO 23/24 recognition sequence are referred to herein as “test cells.”
(§2) Novel engineered meganucleases derived from the LOX 3-4x.109 meganuclease were prepared by making amino acid substitutions at one or more positions in the first subunit. These engineered meganucleases were then evaluated for cleavage of the LOX 3-4 recognition sequence modified to have a GTGG center sequence (SEQ ID NO: 496) in the CHO reporter assay according to Example 1. Novel meganucleases which were modified to comprise the residues recited in the tables below were capable of cleaving the LOX 3-4 recognition sequence having a GTGG four base pair center sequence.

Another data set deals with T2, LOX 3-4 m.192 (artificial (I-CreI derived)).
T2 chain: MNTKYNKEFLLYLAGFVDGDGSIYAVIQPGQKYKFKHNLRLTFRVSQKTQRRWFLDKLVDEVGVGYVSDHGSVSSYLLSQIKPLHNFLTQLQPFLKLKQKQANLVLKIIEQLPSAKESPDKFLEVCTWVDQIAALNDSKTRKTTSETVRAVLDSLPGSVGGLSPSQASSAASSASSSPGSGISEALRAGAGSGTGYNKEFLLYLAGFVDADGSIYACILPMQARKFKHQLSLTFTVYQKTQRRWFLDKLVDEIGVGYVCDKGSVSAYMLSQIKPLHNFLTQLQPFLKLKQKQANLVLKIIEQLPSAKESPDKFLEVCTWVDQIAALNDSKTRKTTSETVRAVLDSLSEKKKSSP
From the text: as §1, §2

A further data set addresses T3, LOX 3-4 m.203 (artificial (I-CreI derived)).
T3 chain: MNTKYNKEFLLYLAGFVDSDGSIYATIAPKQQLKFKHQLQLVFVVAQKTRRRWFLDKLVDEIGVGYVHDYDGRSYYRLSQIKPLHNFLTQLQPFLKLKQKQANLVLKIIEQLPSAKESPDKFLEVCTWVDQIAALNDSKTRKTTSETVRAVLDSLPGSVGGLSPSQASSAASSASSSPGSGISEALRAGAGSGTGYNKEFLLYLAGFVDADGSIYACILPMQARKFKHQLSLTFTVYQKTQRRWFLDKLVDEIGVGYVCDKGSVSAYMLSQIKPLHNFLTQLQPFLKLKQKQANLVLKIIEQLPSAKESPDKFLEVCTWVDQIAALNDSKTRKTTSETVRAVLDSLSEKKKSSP
From the text: as §1, §2

Another data set concerns the target T4, LOX 3-4m.856 (artificial (I-CreI derived)).
T4 chain: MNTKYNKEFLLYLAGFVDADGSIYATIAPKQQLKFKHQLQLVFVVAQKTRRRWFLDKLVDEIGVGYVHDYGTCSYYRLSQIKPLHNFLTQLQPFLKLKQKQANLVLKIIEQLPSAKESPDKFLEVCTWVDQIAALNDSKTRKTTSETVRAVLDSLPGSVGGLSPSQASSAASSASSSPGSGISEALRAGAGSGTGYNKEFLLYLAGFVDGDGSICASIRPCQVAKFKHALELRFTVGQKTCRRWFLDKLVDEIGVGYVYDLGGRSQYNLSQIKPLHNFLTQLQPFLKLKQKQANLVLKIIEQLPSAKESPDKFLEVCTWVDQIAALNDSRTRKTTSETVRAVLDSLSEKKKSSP
From the text: as §1
(§3) Novel engineered meganucleases derived from the LOX 3-4x.109 meganuclease were prepared by making amino acid substitutions at one or more positions in the first subunit and one or more positions in the second subunit. In addition, two engineered meganucleases were generated that inserted an additional R residue following position 264, which corresponds to position 73 of wild-type I-CreI. These engineered meganucleases were then evaluated for cleavage of the LOX 3-4 recognition sequence modified to have an ACAG center sequence (SEQ ID NO: 34) in the CHO reporter assay according to Example 1.

Another data set concerns the target T5, LOX 3-4m.788 (artificial (I-CreI derived)).
T5 chain: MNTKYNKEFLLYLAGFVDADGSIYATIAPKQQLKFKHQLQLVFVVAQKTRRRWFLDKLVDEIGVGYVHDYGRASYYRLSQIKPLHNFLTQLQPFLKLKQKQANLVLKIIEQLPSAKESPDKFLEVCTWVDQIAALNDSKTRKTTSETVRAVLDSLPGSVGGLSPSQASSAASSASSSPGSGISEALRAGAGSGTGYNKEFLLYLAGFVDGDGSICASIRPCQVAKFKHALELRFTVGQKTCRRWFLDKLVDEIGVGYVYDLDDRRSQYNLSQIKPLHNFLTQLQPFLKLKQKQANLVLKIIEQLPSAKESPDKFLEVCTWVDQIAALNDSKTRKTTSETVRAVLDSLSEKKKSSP
From the text: as §1, §3

In a further data set the target is T6, LOX 3-4m.776 (artificial (I-CreI derived)).
T6 chain: T4 chain with F54L, G71R, T72Q, Q80E
From the text: as §1, §3

Another data set concerns the target T7, LOX 3-4m.775 (artificial (I-CreI derived)).
T7 chain: T4 chain with F54I, T72K, C73A, Q80E, R330K
From the text: as §1, §3

The next data set has as its target T8, LOX 3-4 m.186 (artificial (I-CreI derived)).
T8 chain: T4 chain with A19S, R50S, G71S, T72K, C73T, C241Q, G263S, R264V, N268T, R330K
From the text: as §1
(§4) Novel engineered meganucleases derived from the LOX 3-4x.109 meganuclease were prepared by making amino acid substitutions at one or more positions in the first subunit. These engineered meganucleases were then evaluated for cleavage of the LOX 3-4 recognition sequence modified to have a GTGC center sequence (SEQ ID NO: 463) in the CHO reporter assay according to Example 1. Novel meganucleases which were modified to comprise the residues recited in the tables below were capable of cleaving the LOX 3-4 recognition sequence having a GTGC four base pair center sequence.

A further data set has as its target T9, LOX 3-4 m.180 (artificial (I-CreI derived)).
T9 chain: T4 chain with K48R, R50I, T72A, C73V, C241Q, G263S, R264V, N268T, R330K
From the text: as §1, §4

A further data set has as its target T10, LOX 3-4 m.181 (artificial (I-CreI derived)).
T10 chain: T4 chain with A19S, K48S, G71R, T72N, K139T, C241Q, G263S, R264V, N268T, R330K
From the text: as §1, §4

Substitutions are numbered along the chain they refer to.

B1: LOX 3-4 GTGG (dsDNA)
DNA 1: GTATAGCATGTGGTATACGAAG
DNA 2: CTTCGTATACCACATGCTATAC
B1: the activity with LOX 3-4 m.201 was found to be 11 % GFP; with LOX 3-4 m.192 it was 11.9 % GFP; with LOX 3-4 m.203, 12.1 % GFP.

B2: LOX 3-4 ACAG (dsDNA)
DNA 1: GTATAGCATACAGTATACGAAG
DNA 2: CTTCGTATACTGTATGCTATAC
Turning to B2, the activity with LOX 3-4m.856 stood at 10.8 % GFP; with LOX 3-4m.788, 10.5 % GFP; with LOX 3-4m.776 it was 10.4 % GFP; with LOX 3-4m.775 it was 12.2 % GFP.

B3: LOX 3-4 GTGC (dsDNA)
DNA 1: GTATAGCATGTGCTATACGAAG
DNA 2: CTTCGTATAGCACATGCTATAC
As to B3, the activity came out at 13.4 % GFP with LOX 3-4 m.186, 13.7 % GFP with LOX 3-4 m.180 and 13.8 % GFP with LOX 3-4 m.181.
